Laboratory results published in patent US12059429B2, “Hornerin: a novel non-VEGF mediated angiogenic protein expressed in both human and mouse angiogenic endothelial cells and human pancreatic cancer cells” (University of Virginia Patent Foundation, priority 2018, dated 2024).

System: hornerin
Experiment: Immunoblot of hornerin in HUVECs treated with growth factors
Type: cell-based, human
Details: 24 hours treatment; growth factors at published B-max concentrations, EGF at increasing concentrations
Protocol: HUVECs were cultured in 10 cm dishes for 24 hours prior to a change to media containing VEGF (at B-max concentration), TCM, or VC. After 24 hours treatment, the cells were washed with DPBST two times and lysed with radioimmunoprecipitation assay (RIPA) buffer (Thermo Scientific). Lysate protein concentrations were measured by the bicinchoninic acid assay (Pierce, Waltham, MA, USA) and equivalent amounts of protein were loaded into precast 4-15% tris-glycine eXtended (TGX) polyacrylamide gels (Bio-Rad, Hercules, CA, USA). The proteins were resolved by electrophoresis and transferred to nitrocellulose membranes using the iBlot system (Invitrogen, Carlsbad, CA, USA). The membranes were then washed in Tris-buffered saline+1% Tween-20 (TBST), blocked for 30 minutes in TBST+2% milk solution, and incubated overnight at 4° C. with primary antibodies anti-hornerin (Abcam, Cambridge, UK, ab78909; (1:1000)) and anti-HSP90 (Cell Signaling Technology, Danvers, MA, USA, 4877; (1:1000)). The following day the membranes were washed and subsequently incubated with the secondary antibodies anti-goat HRP (R&D Systems, Minneapolis, MN, USA, HAF109; 1:5000) and anti-rabbit HRP (GE Healthcare, NA934V; 1:5000) for 45 minutes at RT. […]
Major constituents of TCM were determined using a Human Angiogenesis Antibody Array (Affymetrix, Santa Clara, CA, USA) per manufacturer's instructions. […]

B1: IL-12: growth factor found in TCM, added to HUVECs at published B-max concentration (protein, UniProt P29459 23-219; P29460 23-328, looked up)
Interleukin-12 subunit alpha: RNLPVATPDPGMFPCLHHSQNLLRAVSNMLQKARQTLEFYPCTSEEIDHEDITKDKTSTVEACLPLELTKNESCLNSRETSFITNGSCLASRKTSFMMALCLSSIYEDLKMYQVEFKTMNAKLLMDPKRQIFLDQNMLAVIDELMQALNFNSETVPQKSSLEEPDFYKTKIKLCILLHAFRIRAVTIDRVMSYLNAS
Interleukin-12 subunit beta: IWELKKDVYVVELDWYPDAPGEMVVLTCDTPEEDGITWTLDQSSEVLGSGKTLTIQVKEFGDAGQYTCHKGGEVLSHSLLLLHKKEDGIWSTDILKDQKEPKNKTFLRCEAKNYSGRFTCWWLTTISTDLTFSVKSSRGSSDPQGVTCGAATLSAERVRGDNKEYEYSVECQEDSACPAAEESLPIEVMVDAVHKLKYENYTSSFFIRDIIKPDPPKNLQLKPLKNSRQVEVSWEYPDTWSTPHSYFSLTFCVQVQGKSKREKKDRVFTDKTSATVICRKNASISVRAQDRYYSSSWSEWASVPCS
With B1 the “hornerin expression in HUVECs” value was “might stimulate hornerin expression”.
